In general, Kd refers to the concentration at which binding is half-saturated.

Kd data for two molecules are collected here from article PMC5648539 (Science signaling, 2017).

The test addresses wild-type CXCL12 (stromal cell-derived factor-1) (UniProt P48061-2 22-89). The experiment in a line: radioligand binding.

Positions count from the first letter of the chain named.

B1: FLAG-tagged human CXCR4, wild type (receptor, UniProt P61073 1-352, looked up)
chain: MEGISIYTSDNYTEEMGSGDYDSMKEPCFREENANFNKIFLPTIYSIIFLTGIVGNGLVILVMGYQKKLRSMTDKYRLHLSVADLLFVITLPFWAVDAVANWYFGNFLCKAVHVIYTVNLYSSVLILAFISLDRYLAIVHATNSQRPRKLLAEKVVYVGVWIPALLLTIPDFIFANVSEADDRYICDRFYPNDLWVVVFQFQHIMVGLILPGIVILSCYCIIISKLSHSKGHQKRKALKTTVILILAFFACWLPYYIGISIDSFILLEIIKQGCEFENTVHKWISITEALAFFHCCLNPILYAFLGAKFKTSAQHALTSVSRGSSLKILSKGKRGGHSSVSTESESSSFHSS
On to B1, for which the equilibrium dissociation constant (Kd) came to 1.45 nM. This counts as single-digit nanomolar.

B2: FLAG-tagged human CXCR4 Ile4Glu/Ile6Glu (receptor, UniProt P61073 1-352, looked up)
chain: B1 chain with I4E, I6E
Take B2: binding was characterised by a dissociation constant (Kd) of 45.7 nM. This Kd is about 32-fold higher than that of the molecule before.
